Data from the supplement of paper PMC10567573.

B1: TRIM63 (parent)
chain: FRCPTCRHEVIMDRHGVYGLQRNL
B2: HESX1 (parent)
chain: SKYENYFSASERLSLKRELSWYRG

Variants of: B1
Assay: protein stability index of a GFP-peptide fusion (GPS, HEK-293T) (PSI 1-6); higher = more stable
Conditions: c terminus: a fixed tail appended
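Note: lentivirally expressed fusions sorted by FACS into six bins by GFP to DsRed ratio, PSI derived from sequencing read proportions per bin multiplied by bin number.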

Q: Which protein stability index does the source give for FRCPTCRHEVIMDRHGVYGMQRNL [L20M] here?
A: 1.81

Q: With FRCPTCRHEVIMDRHGVYGNQRNL [L20N] as the variant, how does the protein stability index read?
A: 2.05

Q: With FRCPTCRHEVIMDRHGVYGPQRNL [L20P] as the variant, how does the protein stability index read?
A: 1.77

Q: Which protein stability index does the source give for FRCPTCRHEVIMDRHGVYGQQRNL [L20Q] here?
A: 2.07

Q: Which protein stability index does the source give for FRCPTCRHEVIMDRHGVYGRQRNL [L20R] here?
A: 1.08

Q: With FRCPTCRHEVIMDRHGVYGSQRNL [L20S] as the variant, how does the protein stability index read?
A: 2.11

Q: For FRCPTCRHEVIMDRHGVYGTQRNL [L20T], which protein stability index is on record?
A: 2.81

Q: Which protein stability index does the source give for FRCPTCRHEVIMDRHGVYGVQRNL [L20V] here?
A: 2.71

Q: For FRCPTCRHEVIMDRHGVYGWQRNL [L20W], which protein stability index is on record?
A: 2.25

Q: With FRCPTCRHEVIMDRHGVYGYQRNL [L20Y] as the variant, how does the protein stability index read?
A: 1.99

Q: For FRCPTCRHEVIMDRHGVYGLARNL [Q21A], which protein stability index is on record?
A: 1.66

Q: Which protein stability index does the source give for FRCPTCRHEVIMDRHGVYGLCRNL [Q21C] here?
A: 2.63

Q: With FRCPTCRHEVIMDRHGVYGLDRNL [Q21D] as the variant, how does the protein stability index read?
A: 2.1

Q: For FRCPTCRHEVIMDRHGVYGLERNL [Q21E], which protein stability index is on record?
A: 2.73

Q: For FRCPTCRHEVIMDRHGVYGLFRNL [Q21F], which protein stability index is on record?
A: 1.27

Q: For FRCPTCRHEVIMDRHGVYGLGRNL [Q21G], which protein stability index is on record?
A: 2.42

Q: For FRCPTCRHEVIMDRHGVYGLHRNL [Q21H], which protein stability index is on record?
A: 1.86

Q: With FRCPTCRHEVIMDRHGVYGLIRNL [Q21I] as the variant, how does the protein stability index read?
A: 1.74

Q: With FRCPTCRHEVIMDRHGVYGLKRNL [Q21K] as the variant, how does the protein stability index read?
A: 2.02

Q: Which protein stability index does the source give for FRCPTCRHEVIMDRHGVYGLLRNL [Q21L] here?
A: 3.19

Q: For FRCPTCRHEVIMDRHGVYGLMRNL [Q21M], which protein stability index is on record?
A: 1.63

Q: For FRCPTCRHEVIMDRHGVYGLNRNL [Q21N], which protein stability index is on record?
A: 2.87

Q: For FRCPTCRHEVIMDRHGVYGLPRNL [Q21P], which protein stability index is on record?
A: 1.96

Q: For FRCPTCRHEVIMDRHGVYGLRRNL [Q21R], which protein stability index is on record?
A: 1.98

Q: With FRCPTCRHEVIMDRHGVYGLSRNL [Q21S] as the variant, how does the protein stability index read?
A: 1.55

Q: Which protein stability index does the source give for FRCPTCRHEVIMDRHGVYGLVRNL [Q21V] here?
A: 1.59

Q: Which protein stability index does the source give for FRCPTCRHEVIMDRHGVYGLWRNL [Q21W] here?
A: 2.31

Q: With FRCPTCRHEVIMDRHGVYGLYRNL [Q21Y] as the variant, how does the protein stability index read?
A: 2.17

Q: With FRCPTCRHEVIMDRHGVYGLQANL [R22A] as the variant, how does the protein stability index read?
A: 2.29

Q: For FRCPTCRHEVIMDRHGVYGLQCNL [R22C], which protein stability index is on record?
A: 2.29

Q: With FRCPTCRHEVIMDRHGVYGLQDNL [R22D] as the variant, how does the protein stability index read?
A: 3.21

Q: Which protein stability index does the source give for FRCPTCRHEVIMDRHGVYGLQENL [R22E] here?
A: 3.83

Q: Which protein stability index does the source give for FRCPTCRHEVIMDRHGVYGLQFNL [R22F] here?
A: 1.84

Q: With FRCPTCRHEVIMDRHGVYGLQGNL [R22G] as the variant, how does the protein stability index read?
A: 1.98

Q: Which protein stability index does the source give for FRCPTCRHEVIMDRHGVYGLQHNL [R22H] here?
A: 2.17

Q: Which protein stability index does the source give for FRCPTCRHEVIMDRHGVYGLQINL [R22I] here?
A: 3.38

Q: Which protein stability index does the source give for FRCPTCRHEVIMDRHGVYGLQKNL [R22K] here?
A: 2.02

Q: With FRCPTCRHEVIMDRHGVYGLQLNL [R22L] as the variant, how does the protein stability index read?
A: 1.34

Q: With FRCPTCRHEVIMDRHGVYGLQMNL [R22M] as the variant, how does the protein stability index read?
A: 1.45

Q: Which protein stability index does the source give for FRCPTCRHEVIMDRHGVYGLQNNL [R22N] here?
A: 2.95

Q: Which protein stability index does the source give for FRCPTCRHEVIMDRHGVYGLQPNL [R22P] here?
A: 2.49

Q: For FRCPTCRHEVIMDRHGVYGLQQNL [R22Q], which protein stability index is on record?
A: 2.24

Q: Which protein stability index does the source give for FRCPTCRHEVIMDRHGVYGLQSNL [R22S] here?
A: 2.35

Q: With FRCPTCRHEVIMDRHGVYGLQTNL [R22T] as the variant, how does the protein stability index read?
A: 2.08

Q: Which protein stability index does the source give for FRCPTCRHEVIMDRHGVYGLQVNL [R22V] here?
A: 2.43

Q: With FRCPTCRHEVIMDRHGVYGLQWNL [R22W] as the variant, how does the protein stability index read?
A: 2.43

Q: With FRCPTCRHEVIMDRHGVYGLQYNL [R22Y] as the variant, how does the protein stability index read?
A: 1.75

Q: For FRCPTCRHEVIMDRHGVYGLQRAL [N23A], which protein stability index is on record?
A: 1.79

Q: Which protein stability index does the source give for FRCPTCRHEVIMDRHGVYGLQRCL [N23C] here?
A: 2.2

Q: Which protein stability index does the source give for FRCPTCRHEVIMDRHGVYGLQRDL [N23D] here?
A: 2.55

Q: For FRCPTCRHEVIMDRHGVYGLQREL [N23E], which protein stability index is on record?
A: 2.05

Q: With FRCPTCRHEVIMDRHGVYGLQRFL [N23F] as the variant, how does the protein stability index read?
A: 2.02

Q: With FRCPTCRHEVIMDRHGVYGLQRGL [N23G] as the variant, how does the protein stability index read?
A: 2.82

Q: Which protein stability index does the source give for FRCPTCRHEVIMDRHGVYGLQRHL [N23H] here?
A: 2.5

Q: For FRCPTCRHEVIMDRHGVYGLQRIL [N23I], which protein stability index is on record?
A: 1.89

Q: With FRCPTCRHEVIMDRHGVYGLQRKL [N23K] as the variant, how does the protein stability index read?
A: 2.04

Q: With FRCPTCRHEVIMDRHGVYGLQRLL [N23L] as the variant, how does the protein stability index read?
A: 1.7

Q: Which protein stability index does the source give for FRCPTCRHEVIMDRHGVYGLQRML [N23M] here?
A: 1.47

Q: For FRCPTCRHEVIMDRHGVYGLQRPL [N23P], which protein stability index is on record?
A: 1.56

Q: Which protein stability index does the source give for FRCPTCRHEVIMDRHGVYGLQRQL [N23Q] here?
A: 2.67

Q: For FRCPTCRHEVIMDRHGVYGLQRRL [N23R], which protein stability index is on record?
A: 2.54

Q: For FRCPTCRHEVIMDRHGVYGLQRSL [N23S], which protein stability index is on record?
A: 2.14

Q: With FRCPTCRHEVIMDRHGVYGLQRTL [N23T] as the variant, how does the protein stability index read?
A: 1.67

Q: With FRCPTCRHEVIMDRHGVYGLQRVL [N23V] as the variant, how does the protein stability index read?
A: 2.96

Q: With FRCPTCRHEVIMDRHGVYGLQRWL [N23W] as the variant, how does the protein stability index read?
A: 2.79

Q: With FRCPTCRHEVIMDRHGVYGLQRYL [N23Y] as the variant, how does the protein stability index read?
A: 1.25

Q: With FRCPTCRHEVIMDRHGVYGLQRNA [L24A] as the variant, how does the protein stability index read?
A: 2.34

Q: With FRCPTCRHEVIMDRHGVYGLQRNC [L24C] as the variant, how does the protein stability index read?
A: 2.75

Q: With FRCPTCRHEVIMDRHGVYGLQRND [L24D] as the variant, how does the protein stability index read?
A: 2.6

Q: For FRCPTCRHEVIMDRHGVYGLQRNE [L24E], which protein stability index is on record?
A: 2.46

Q: With FRCPTCRHEVIMDRHGVYGLQRNF [L24F] as the variant, how does the protein stability index read?
A: 1.61

Q: Which protein stability index does the source give for FRCPTCRHEVIMDRHGVYGLQRNG [L24G] here?
A: 2.99

Q: For FRCPTCRHEVIMDRHGVYGLQRNH [L24H], which protein stability index is on record?
A: 2.88

Q: For FRCPTCRHEVIMDRHGVYGLQRNI [L24I], which protein stability index is on record?
A: 1.69

Q: For FRCPTCRHEVIMDRHGVYGLQRNK [L24K], which protein stability index is on record?
A: 1.89

Q: For FRCPTCRHEVIMDRHGVYGLQRNM [L24M], which protein stability index is on record?
A: 2.03

Q: With FRCPTCRHEVIMDRHGVYGLQRNN [L24N] as the variant, how does the protein stability index read?
A: 1.85

Q: With FRCPTCRHEVIMDRHGVYGLQRNP [L24P] as the variant, how does the protein stability index read?
A: 2.98

Q: For FRCPTCRHEVIMDRHGVYGLQRNQ [L24Q], which protein stability index is on record?
A: 2.26

Q: For FRCPTCRHEVIMDRHGVYGLQRNR [L24R], which protein stability index is on record?
A: 1.7

Q: With FRCPTCRHEVIMDRHGVYGLQRNS [L24S] as the variant, how does the protein stability index read?
A: 2.47

Q: With FRCPTCRHEVIMDRHGVYGLQRNT [L24T] as the variant, how does the protein stability index read?
A: 2.98

Q: For FRCPTCRHEVIMDRHGVYGLQRNV [L24V], which protein stability index is on record?
A: 2.12

Q: With FRCPTCRHEVIMDRHGVYGLQRNW [L24W] as the variant, how does the protein stability index read?
A: 2.4

Q: For FRCPTCRHEVIMDRHGVYGLQRNY [L24Y], which protein stability index is on record?
A: 2.7

Variants of: B2
Assay: as above
Conditions: c terminus: a fixed tail appended

Q: With HKYENYFSASERLSLKRELSWYRG [S1H] as the variant, how does the protein stability index read?
A: 2.34

Q: Which protein stability index does the source give for SKYENYFSASEVLSLKRELSWYRG [R12V] here?
A: 1.55

Q: Which protein stability index does the source give for SKYANYFSASERLSLKRELSWYRG [E4A] here?
A: 1.61

Q: With SKYENYFSASERLSLKCELSWYRG [R17C] as the variant, how does the protein stability index read?
A: 1.61

Q: For SKYENYFSASERLSLKREESWYRG [L19E], which protein stability index is on record?
A: 2.08

Q: For SKSENYFSASERLSLKRELSWYRG [Y3S], which protein stability index is on record?
A: 2.97

Q: For SAYENYFSASERLSLKRELSWYRG [K2A], which protein stability index is on record?
A: 2.09

Q: For SKYENYFSASERLSRKRELSWYRG [L15R], which protein stability index is on record?
A: 2.24

Q: With SKYECYFSASERLSLKRELSWYRG [N5C] as the variant, how does the protein stability index read?
A: 1.51
